For one substance, IFNα secretion results are on record in patent publication US20190381169A1, “PHARMACEUTICAL COMBINATIONS FOR IMMUNOTHERAPY” (Technische Universitat Dresden, priority 2014, published 2019).

The target in this assay is T1, p75^NTR (Homo sapiens, UniProt P08138).
T1 sequence (P08138 29-427): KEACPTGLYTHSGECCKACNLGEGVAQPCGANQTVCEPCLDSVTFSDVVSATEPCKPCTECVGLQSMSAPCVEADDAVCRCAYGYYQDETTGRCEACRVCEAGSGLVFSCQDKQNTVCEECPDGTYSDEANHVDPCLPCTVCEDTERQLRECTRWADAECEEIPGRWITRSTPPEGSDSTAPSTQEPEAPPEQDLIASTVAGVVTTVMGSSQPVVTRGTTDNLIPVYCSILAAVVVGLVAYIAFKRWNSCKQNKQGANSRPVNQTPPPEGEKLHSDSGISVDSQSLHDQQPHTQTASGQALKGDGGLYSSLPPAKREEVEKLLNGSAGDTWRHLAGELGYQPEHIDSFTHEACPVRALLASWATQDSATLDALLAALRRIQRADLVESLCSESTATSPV
The experiment in a line: IFNα secretion by ODN 2216 stimulated human PDC (ELISA). The class given is cell-based. On the set-up: nerve growth factor receptor p75^NTR, which is expressed by human and murine plasmacytoid dendritic cells (PDC); endogenous in cells; host or cells: primary human plasmacytoid dendritic cells (BDCA-4+ selection) from buffy coats or from peripheral blood of allergic donors. To be noted: ODN 2216 plus NGF 200 ng/ml vs ODN 2216 without NGF; 14 hours; p=0.0031. How it is done:
Blood samples used for cell purification were obtained from two different sources: Fresh buffy coat samples, not older than 8 hours, served as the source of PDC used in oligodeoxynucleotides (ODN) and anti FcεRIα stimulation experiments. […]
Alike CD4^+ T helper cells isolation from peripheral blood mononuclear cells, total cell numbers were determined prior to purification of PDC. […] Magnetic cell separation procedure as described for first LS column was repeated for second MS column except that washing of the MS column was carried out with 500 μl PBS E/B. Purified PDC were counted and purity was assessed by flow cytometric analysis after staining the cells with monoclonal mouse anti human BDCA2-PE (Miltenyi Biotech) and monoclonal mouse anti human CD271-APC (Miltenyi Biotech). […]
(In general: In an ELISA, binding on a coated surface is turned into a signal by an enzyme label.)

As to “NGF: Nerve growth factor, best characterized neurotrophin; natural p75^NTR agonist (R&D Systems)”, the IFNα secretion result was “significant reduction”.
